Experimental data from article PMC12212259 (2025).
Like-named read-outs stand apart in the source and are kept apart here. Values belong to the binder of their own block, whether it stands above or below them.

Legend:
Assay in all cases: SPR
Nb6E-biotin [1] = molecular target: T1, Nb6E-biotin (biotin at the C terminus (sortagging))
Nb6E-biotin [2] = molecular target: T1, Nb6E-biotin; remark: listed apart in the source
Nb6E-biotin [3] = molecular target: T1, Nb6E-biotin; remark: listed apart in the source
Nb127–biotin = Nb127–biotin (biotin at the C terminus (sortagging))
Chain of Nb127–biotin (biotin at the C terminus (sortagging)) (VHH, as listed by the source): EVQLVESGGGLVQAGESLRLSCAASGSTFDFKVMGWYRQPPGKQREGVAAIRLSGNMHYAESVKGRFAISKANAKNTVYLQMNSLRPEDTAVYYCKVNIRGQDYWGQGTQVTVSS

T1 sequence (VHH, as listed by the source): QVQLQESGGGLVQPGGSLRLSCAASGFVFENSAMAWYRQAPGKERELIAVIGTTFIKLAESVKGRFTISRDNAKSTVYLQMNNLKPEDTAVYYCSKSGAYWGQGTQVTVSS

Binder: QADWEAKELARQIS [6E-W4]
Kd (Nb6E-biotin [1]): 0.0152 µM

Binder: GGGQADQEAKELARQIS [G3-6E]
Kd (Nb6E-biotin [2]): 0.0042 µM

Binder: QADQEAKEMARQIS [6E-M9]
Kd (Nb6E-biotin [3]): 0.0782 µM

More lines, now with the values ahead:

Kd (Nb6E-biotin [1]): 0.0176 µM
Binder: QADQEAWELARQIS [6E-W7]

Kd (Nb6E-biotin [3]): 0.159 µM
Binder: QADQEAKELARQIS [6E-WT peptide]

Kd (Nb127–biotin): 0.0168 µM
Binder: SFEDFWKGED [127-tag peptide]

Kd (Nb6E-biotin [1]): 0.0092 µM
Binder: QADQEAKWLARQIS [6E-W8]
